How the values were obtained:
ΔNp73β [1] = target: T1, ΔNp73β (Homo sapiens, UniProt O15350-9 1-450); test: anisotropy competition; 25 mM NaPi, 225 mM NaCl, 10% v/v glycerol, 5 mM DTT, 0.2 mg/mL BSA, 22°C; 20 nM labelled DNA; pH not stated for the binding assay; settings: protein: recombinant; tags: N-terminal 6xHis-lipoyl-TEV tag, cleaved; chain copies: 4
T1 sequence: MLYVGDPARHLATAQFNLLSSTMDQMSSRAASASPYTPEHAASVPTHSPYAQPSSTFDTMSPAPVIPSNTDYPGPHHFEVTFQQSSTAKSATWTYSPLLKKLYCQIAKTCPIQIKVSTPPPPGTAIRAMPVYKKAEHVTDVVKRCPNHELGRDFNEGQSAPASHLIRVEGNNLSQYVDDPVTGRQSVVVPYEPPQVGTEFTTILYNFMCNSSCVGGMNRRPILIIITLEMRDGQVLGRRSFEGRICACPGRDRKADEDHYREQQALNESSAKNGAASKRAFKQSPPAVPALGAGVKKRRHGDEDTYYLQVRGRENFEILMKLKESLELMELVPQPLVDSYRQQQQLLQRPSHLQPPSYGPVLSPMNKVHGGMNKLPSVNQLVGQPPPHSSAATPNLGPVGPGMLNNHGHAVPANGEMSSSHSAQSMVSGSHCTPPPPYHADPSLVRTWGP

Hsp53 = Hsp53 (Homo sapiens, UniProt P04637 1-393); test: as above; settings: protein: recombinant; tags: N-terminal 6xHis-lipoyl-TEV tag, cleaved; chain copies: 4
p73CT = target: T2, p73CT (Homo sapiens, UniProt O15350 104-383); test: as above; settings: protein: recombinant; tags: N-terminal 6xHis-lipoyl-TEV tag, cleaved; chain copies: 4
T2 sequence: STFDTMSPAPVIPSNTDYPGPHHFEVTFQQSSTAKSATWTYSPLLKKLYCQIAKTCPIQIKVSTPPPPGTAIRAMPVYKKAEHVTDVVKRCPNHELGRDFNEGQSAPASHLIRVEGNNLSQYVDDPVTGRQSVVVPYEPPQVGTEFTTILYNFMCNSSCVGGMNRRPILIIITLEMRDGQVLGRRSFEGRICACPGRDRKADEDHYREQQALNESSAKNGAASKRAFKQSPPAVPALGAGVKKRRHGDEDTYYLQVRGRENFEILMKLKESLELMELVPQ

ΔNp63β = target: T3, ΔNp63β (Homo sapiens, UniProt Q9H3D4-4 1-461); test: fluorescence anisotropy direct titration; 25 mM sodium phosphate (purification buffer pH 7.2), 225 mM NaCl, 10% v/v glycerol, 5 mM DTT, 0.2 mg/mL BSA, 22 C; settings: protein: recombinant; tags: N-terminal 6xHis-lipoyl-TEV tag, cleaved; chain copies: 4; label: 5'-Alexa488
T3 sequence: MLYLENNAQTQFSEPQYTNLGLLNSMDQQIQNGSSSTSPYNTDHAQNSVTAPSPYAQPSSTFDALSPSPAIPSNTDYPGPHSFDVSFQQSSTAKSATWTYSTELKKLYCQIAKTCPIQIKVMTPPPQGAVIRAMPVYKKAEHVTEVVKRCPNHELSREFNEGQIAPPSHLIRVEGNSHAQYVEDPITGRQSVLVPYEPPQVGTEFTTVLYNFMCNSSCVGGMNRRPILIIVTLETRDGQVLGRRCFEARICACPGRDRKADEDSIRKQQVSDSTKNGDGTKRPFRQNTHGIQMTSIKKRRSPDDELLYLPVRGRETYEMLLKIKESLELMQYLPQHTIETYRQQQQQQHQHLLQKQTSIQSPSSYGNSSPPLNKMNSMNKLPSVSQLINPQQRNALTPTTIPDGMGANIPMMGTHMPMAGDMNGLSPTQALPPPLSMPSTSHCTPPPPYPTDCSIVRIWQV

ΔNp73β [2] = target: T1, ΔNp73β; test: as above; settings: protein: recombinant; tags: N-terminal 6xHis-lipoyl-TEV tag, cleaved; chain copies: 4; label: 5'-Alexa488
Mmp53 = Mmp53 (Mus musculus, UniProt P02340 1-390); test: as above; settings: protein: recombinant; tags: N-terminal 6xHis-lipoyl-TEV tag, cleaved; chain copies: 4; label: 5'-Alexa488
ΔNp63γ = target: T4, ΔNp63γ (Homo sapiens, UniProt Q9H3D4-6 1-393); test: as above; settings: protein: recombinant; tags: N-terminal 6xHis-lipoyl-TEV tag, cleaved; chain copies: 4; label: 5'-Alexa488
T4 sequence: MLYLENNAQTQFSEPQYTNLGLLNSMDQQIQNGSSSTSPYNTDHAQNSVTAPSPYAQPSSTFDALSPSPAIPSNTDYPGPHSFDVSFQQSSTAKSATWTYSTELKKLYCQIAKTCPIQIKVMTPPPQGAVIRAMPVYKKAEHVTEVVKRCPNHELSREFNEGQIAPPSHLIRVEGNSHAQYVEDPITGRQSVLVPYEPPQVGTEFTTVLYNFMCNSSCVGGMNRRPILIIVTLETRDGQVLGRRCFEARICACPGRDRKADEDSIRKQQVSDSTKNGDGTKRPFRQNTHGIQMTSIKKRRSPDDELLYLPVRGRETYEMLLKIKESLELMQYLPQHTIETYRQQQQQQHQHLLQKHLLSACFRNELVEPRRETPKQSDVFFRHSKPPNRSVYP

Xlp53 = Xlp53 (Xenopus laevis, UniProt Q7T1D0 1-362); test: as above; settings: protein: recombinant; tags: N-terminal 6xHis-lipoyl-TEV tag, cleaved; chain copies: 4; label: 5'-Alexa488
Xlp53, sequence (Q7T1D0 entry or part of it): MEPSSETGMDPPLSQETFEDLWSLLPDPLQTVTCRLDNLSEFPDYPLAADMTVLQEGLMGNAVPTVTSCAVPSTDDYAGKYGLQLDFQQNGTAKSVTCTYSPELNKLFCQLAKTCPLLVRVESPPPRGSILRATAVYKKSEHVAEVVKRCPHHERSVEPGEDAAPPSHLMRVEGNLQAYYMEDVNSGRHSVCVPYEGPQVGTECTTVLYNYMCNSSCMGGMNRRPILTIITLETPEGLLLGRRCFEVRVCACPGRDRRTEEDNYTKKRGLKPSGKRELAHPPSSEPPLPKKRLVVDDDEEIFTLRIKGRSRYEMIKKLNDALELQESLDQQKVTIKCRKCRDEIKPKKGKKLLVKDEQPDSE

Hsp53, sequence (P04637 whole entry): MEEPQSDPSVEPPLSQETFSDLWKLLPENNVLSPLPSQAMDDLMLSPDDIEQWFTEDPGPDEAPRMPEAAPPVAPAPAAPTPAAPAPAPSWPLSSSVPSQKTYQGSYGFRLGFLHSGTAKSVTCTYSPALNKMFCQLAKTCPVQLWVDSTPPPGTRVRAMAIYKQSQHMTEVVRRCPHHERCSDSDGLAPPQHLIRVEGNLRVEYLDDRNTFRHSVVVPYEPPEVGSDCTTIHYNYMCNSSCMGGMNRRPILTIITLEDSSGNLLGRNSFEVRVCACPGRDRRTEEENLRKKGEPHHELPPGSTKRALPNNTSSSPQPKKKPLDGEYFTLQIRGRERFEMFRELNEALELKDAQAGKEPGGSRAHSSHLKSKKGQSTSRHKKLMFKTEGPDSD
Mmp53, sequence (P02340 whole entry): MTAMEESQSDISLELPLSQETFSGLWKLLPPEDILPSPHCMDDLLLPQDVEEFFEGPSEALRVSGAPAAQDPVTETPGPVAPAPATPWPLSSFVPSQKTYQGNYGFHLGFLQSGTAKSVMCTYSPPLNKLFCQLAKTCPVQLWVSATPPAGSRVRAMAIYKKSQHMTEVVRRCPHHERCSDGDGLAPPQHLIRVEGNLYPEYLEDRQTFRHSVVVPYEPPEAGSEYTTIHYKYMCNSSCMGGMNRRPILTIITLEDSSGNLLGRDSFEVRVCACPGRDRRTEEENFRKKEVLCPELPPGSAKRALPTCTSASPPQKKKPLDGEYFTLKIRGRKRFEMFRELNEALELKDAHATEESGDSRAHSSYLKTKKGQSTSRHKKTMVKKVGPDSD

B1: Ref competitor (dsDNA)
DNA 1: CGCGGACATGTCCGGACATGTCCCGC
DNA 2: GCGGGACATGTCCGGACATGTCCGCG
In the case of B1, the Kd (ΔNp73β [1]) is reported as -7.62 log10(M), the Kd (Hsp53) is reported as -7.12 log10(M) and the Kd (p73CT) is reported as -6.83 log10(M).

B2: Ref_Alexa488 (dsDNA)
DNA 1: GGACATGTCCGGACATGTCC
DNA 2: GGACATGTCCGGACATGTCC
For B2, the Kd (ΔNp63β) was 74.1 nM, the Kd (ΔNp73β [2]) was 55 nM and the Kd (Mmp53) was 95.5 nM. It also gave a Kd (ΔNp63γ) of 67.6 nM and a Kd (Xlp53) of 47.9 nM.

Reference: article PMC2807882, “Conservation of DNA-binding specificity and oligomerisation properties within the p53 family”
